Laboratory results from the supplement of paper PMC10065799, “High-throughput profiling of sequence recognition by tyrosine kinases and SH2 domains using bacterial peptide display” (eLife, 2023).

Key:
Grb2 SH2 = Grb2 SH2 (UniProt P62993); assay: SH2 binding enrichment of the phosphorylated peptide, bacterial display (enrichment ratio); higher = better substrate or ligand; peptides without Tyr show the background
c-Src SH2 = assay: as above
SHP2-C SH2 = assay: as above
Fyn = Fyn (UniProt P06241); assay: phosphorylation enrichment, bacterial display (enrichment ratio); higher = better substrate or ligand; peptides without Tyr show the background
Fyn, sequence (P06241 whole entry, looked up): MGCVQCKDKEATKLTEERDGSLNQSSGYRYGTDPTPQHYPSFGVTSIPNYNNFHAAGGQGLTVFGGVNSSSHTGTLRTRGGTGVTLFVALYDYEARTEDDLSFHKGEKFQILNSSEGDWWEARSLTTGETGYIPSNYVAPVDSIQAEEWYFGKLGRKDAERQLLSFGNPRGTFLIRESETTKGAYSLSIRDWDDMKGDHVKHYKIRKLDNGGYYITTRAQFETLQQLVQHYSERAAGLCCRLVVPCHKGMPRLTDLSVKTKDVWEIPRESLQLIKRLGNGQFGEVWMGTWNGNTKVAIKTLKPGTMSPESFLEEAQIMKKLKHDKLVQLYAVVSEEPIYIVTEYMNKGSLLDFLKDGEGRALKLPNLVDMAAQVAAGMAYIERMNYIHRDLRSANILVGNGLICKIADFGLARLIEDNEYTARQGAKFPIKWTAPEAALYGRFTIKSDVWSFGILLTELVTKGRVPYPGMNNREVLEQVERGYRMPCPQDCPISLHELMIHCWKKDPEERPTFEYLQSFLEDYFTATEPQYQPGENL

c-Abl (mouse) = assay: as above
Fer (mouse) = assay: as above
EPHB1 = EPHB1 (UniProt P54762); assay: as above
EPHB1, sequence (P54762 whole entry, looked up): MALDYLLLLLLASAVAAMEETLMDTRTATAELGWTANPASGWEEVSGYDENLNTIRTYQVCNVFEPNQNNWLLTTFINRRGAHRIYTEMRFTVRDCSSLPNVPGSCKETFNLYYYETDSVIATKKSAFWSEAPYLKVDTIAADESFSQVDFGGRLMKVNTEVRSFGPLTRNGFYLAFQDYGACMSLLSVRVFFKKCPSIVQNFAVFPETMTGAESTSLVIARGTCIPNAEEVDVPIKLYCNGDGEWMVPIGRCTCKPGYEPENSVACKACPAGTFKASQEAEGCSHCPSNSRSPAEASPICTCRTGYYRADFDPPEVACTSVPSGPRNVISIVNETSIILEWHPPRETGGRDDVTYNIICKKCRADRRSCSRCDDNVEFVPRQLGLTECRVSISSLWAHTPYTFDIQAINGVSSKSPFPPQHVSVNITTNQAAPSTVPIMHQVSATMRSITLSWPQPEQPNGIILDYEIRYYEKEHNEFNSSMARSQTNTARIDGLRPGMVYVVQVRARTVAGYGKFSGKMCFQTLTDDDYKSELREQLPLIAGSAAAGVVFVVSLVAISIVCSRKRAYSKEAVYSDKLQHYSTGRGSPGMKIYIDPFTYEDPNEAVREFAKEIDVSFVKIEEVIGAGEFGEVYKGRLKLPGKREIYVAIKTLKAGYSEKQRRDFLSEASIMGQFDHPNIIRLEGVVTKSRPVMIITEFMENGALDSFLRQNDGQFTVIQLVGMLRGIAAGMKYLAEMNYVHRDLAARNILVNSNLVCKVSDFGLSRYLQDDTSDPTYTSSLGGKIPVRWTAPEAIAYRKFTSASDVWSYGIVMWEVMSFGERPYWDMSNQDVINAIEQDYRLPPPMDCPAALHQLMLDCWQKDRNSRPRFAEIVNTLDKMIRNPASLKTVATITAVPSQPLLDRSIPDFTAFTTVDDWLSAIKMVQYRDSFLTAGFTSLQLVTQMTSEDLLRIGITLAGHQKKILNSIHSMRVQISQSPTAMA

AncSZ = assay: as above
FGFR3 = FGFR3 (UniProt P22607); assay: as above
FGFR3, sequence (P22607 whole entry, looked up): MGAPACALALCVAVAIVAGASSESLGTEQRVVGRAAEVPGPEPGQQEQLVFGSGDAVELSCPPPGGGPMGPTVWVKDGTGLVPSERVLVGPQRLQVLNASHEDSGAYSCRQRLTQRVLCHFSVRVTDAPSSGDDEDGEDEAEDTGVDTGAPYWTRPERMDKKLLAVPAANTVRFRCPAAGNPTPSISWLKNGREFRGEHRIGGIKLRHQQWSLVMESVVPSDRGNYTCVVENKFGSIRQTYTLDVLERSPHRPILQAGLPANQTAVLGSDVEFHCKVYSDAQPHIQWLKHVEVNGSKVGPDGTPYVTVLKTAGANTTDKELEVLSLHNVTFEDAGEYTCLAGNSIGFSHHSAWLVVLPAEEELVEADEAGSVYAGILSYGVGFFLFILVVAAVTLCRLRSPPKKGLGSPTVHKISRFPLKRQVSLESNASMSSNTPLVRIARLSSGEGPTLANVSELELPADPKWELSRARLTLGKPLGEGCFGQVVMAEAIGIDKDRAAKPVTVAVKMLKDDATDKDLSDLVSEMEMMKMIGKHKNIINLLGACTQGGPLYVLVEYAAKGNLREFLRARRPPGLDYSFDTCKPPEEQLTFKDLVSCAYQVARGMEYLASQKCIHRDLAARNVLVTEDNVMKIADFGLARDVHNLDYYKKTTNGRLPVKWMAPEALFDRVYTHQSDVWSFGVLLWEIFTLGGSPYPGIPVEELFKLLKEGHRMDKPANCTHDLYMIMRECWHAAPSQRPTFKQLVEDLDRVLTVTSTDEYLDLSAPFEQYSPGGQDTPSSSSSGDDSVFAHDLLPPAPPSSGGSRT

c-Src = assay: as above
Hck = Hck (UniProt P08631); assay: as above
EPHB2 = EPHB2 (UniProt P29323); assay: as above
EPHB2, sequence (P29323 whole entry, looked up): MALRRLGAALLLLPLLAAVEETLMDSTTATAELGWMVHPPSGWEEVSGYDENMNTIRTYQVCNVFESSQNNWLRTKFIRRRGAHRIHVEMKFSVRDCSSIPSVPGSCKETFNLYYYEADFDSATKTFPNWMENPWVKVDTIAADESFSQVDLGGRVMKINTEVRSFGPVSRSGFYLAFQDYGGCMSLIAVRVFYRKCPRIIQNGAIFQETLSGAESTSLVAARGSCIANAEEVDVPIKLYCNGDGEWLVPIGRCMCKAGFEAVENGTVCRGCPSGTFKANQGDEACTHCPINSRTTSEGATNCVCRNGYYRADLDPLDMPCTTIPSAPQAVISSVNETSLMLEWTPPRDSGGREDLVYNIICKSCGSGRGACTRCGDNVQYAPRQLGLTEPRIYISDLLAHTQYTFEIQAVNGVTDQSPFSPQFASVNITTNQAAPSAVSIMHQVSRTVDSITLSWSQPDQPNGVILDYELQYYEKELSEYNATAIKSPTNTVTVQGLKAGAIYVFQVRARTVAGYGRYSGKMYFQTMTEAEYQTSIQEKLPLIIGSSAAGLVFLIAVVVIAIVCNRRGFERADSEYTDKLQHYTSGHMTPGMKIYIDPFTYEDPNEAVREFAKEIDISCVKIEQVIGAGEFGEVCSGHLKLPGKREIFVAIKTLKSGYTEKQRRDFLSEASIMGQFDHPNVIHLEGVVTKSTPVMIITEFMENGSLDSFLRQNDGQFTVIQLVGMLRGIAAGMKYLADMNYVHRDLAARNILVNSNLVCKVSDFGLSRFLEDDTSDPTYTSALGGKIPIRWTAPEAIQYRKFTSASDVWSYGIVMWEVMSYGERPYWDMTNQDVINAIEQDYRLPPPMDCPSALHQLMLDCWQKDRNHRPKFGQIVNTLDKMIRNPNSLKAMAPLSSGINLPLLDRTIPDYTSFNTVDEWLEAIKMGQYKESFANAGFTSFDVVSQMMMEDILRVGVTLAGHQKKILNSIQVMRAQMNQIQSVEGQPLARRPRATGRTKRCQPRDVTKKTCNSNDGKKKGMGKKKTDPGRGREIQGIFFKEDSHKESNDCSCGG

MERTK = MERTK (UniProt Q12866); assay: as above
Jak2 = Jak2 (UniProt O60674); assay: as above
Fes = Fes (UniProt P07332); assay: as above
Fes, sequence (P07332 whole entry, looked up): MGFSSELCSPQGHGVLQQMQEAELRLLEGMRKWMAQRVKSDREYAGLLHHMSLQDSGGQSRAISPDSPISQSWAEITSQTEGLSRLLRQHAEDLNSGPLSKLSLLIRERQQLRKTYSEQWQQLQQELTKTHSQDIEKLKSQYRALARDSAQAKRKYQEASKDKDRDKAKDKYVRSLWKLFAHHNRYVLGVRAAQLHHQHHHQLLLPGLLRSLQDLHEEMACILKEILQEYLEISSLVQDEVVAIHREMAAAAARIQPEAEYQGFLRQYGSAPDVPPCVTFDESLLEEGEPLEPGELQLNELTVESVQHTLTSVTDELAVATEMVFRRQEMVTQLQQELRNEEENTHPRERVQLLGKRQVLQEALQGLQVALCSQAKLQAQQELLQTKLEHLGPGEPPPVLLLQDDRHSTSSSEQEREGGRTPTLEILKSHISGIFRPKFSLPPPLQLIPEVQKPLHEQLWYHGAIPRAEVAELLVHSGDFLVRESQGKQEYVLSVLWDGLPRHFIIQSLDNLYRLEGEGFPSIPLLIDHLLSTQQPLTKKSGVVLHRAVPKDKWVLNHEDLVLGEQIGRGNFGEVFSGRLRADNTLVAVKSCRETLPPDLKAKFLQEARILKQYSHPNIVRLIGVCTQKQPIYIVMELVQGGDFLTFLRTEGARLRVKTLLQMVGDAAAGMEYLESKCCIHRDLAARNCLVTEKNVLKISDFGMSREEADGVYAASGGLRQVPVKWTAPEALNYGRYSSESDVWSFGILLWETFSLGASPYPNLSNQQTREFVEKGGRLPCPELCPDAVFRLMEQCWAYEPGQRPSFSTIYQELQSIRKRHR

FGFR1 = FGFR1 (UniProt P11362); assay: as above
FGFR1, sequence (P11362 whole entry, looked up, the tested form may be a part): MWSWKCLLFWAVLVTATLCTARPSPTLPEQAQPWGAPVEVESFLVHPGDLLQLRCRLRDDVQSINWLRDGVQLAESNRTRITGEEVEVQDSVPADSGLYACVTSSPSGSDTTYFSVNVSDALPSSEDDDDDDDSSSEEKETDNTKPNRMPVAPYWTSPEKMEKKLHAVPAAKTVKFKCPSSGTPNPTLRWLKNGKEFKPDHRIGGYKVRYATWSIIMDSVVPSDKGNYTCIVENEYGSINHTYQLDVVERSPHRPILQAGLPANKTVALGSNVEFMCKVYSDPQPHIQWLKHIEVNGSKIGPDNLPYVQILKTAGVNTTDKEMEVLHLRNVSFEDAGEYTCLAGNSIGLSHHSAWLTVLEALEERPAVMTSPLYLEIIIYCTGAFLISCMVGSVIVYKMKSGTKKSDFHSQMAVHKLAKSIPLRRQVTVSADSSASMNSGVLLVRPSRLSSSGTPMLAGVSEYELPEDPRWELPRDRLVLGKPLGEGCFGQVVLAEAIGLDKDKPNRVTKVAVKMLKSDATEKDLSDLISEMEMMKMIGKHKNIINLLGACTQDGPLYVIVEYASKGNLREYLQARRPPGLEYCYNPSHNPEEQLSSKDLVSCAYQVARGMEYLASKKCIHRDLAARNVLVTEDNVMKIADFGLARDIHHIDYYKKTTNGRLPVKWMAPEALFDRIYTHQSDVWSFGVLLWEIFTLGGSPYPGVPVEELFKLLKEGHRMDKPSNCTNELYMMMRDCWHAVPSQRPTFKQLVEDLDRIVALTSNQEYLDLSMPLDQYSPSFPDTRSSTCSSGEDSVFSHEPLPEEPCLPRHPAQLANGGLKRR
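Throughout, for SH2 binding enrichment of the phosphorylated peptide, bacterial display: peptide library displayed on the E. coli surface as eCPX fusions, selected cells deep-sequenced, score is each peptide's frequency after selection divided by its frequency in the input.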
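Throughout, for phosphorylation enrichment, bacterial display: 11-residue human phosphosite peptides and single-mutation variants displayed on the E. coli surface, counted by deep sequencing, each peptide's frequency after selection divided by its frequency in the unselected input library; frequency after pTyr selection over input frequency; kinase dosed for 20-30% of maximal phosphorylation in three min.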

Row | Sequence | SH2 binding enrichment (Grb2 SH2) | SH2 binding enrichment (c-Src SH2) | SH2 binding enrichment (SHP2-C SH2) | phosphorylation enrichment (Fyn) | phosphorylation enrichment (c-Abl (mouse)) | phosphorylation enrichment (Fer (mouse)) | phosphorylation enrichment (EPHB1) | phosphorylation enrichment (AncSZ) | phosphorylation enrichment (FGFR3) | phosphorylation enrichment (c-Src) | phosphorylation enrichment (Hck) | phosphorylation enrichment (EPHB2) | phosphorylation enrichment (MERTK) | phosphorylation enrichment (Jak2) | phosphorylation enrichment (Fes) | phosphorylation enrichment (FGFR1)
1 | KAVLHYKHQNQ [MTOR_Y1804_E1799K] | 1.12 | 0.861 | 0.734 | 0.36 | 0.891 | 0.469 | 0.423 | 0.6 | 0.629 | 0.366 | 0.449 | 0.328 | 0.366 | 0.622 | 0.863 | 0.427
2 | CSKRFYQLTKL [AR_Y858_R855K] | 1.08 | 0.777 | 0.874 | 0.454 | 0.587 | 0.492 | 0.545 | 0.75 | 0.556 | 0.449 | 0.424 | 0.44 | 0.47 | 0.706 | 0.888 | 0.401
3 | SIKDKYVMALY [KCNH2_Y611_T613M] | 0.836 | 0.514 | 0.679 | 0.483 | 0.599 | 0.45 | 0.505 | 0.639 | 0.547 | 0.422 | 0.59 | 0.481 | 0.441 | 0.648 | 0.734 | 0.638
4 | DGFTDYAEFAK [MCFD2_Y138_I136T_YF] | 0.823 | 0.547 | 0.864 | 0.974 | 0.811 | 0.477 | 0.88 | 1.24 | 0.752 | 1.11 | 0.954 | 0.741 | 0.542 | 1.34 | 1.31 | 0.654
5 | NAGAFYVLSTL [FLVCR2_Y325_A326V] | 0.634 | 0.489 | 0.6 | 0.464 | 0.69 | 0.525 | 0.55 | 1.03 | 0.699 | 0.523 | 0.476 | 0.573 | 0.705 | 0.995 | 1.17 | 0.483
6 | FYDANCDGKEY [MAPRE2_Y162_Y162C] | 1.03 | 0.617 | 0.641 | 0.612 | 0.81 | 0.527 | 0.651 | 1.21 | 0.922 | 0.642 | 0.563 | 0.682 | 0.539 | 1.13 | 1.4 | 0.497
7 | MFRVQYNSSVD [LRFN1_Y458_Q455R_YF] | 0.89 | 0.572 | 0.868 | 0.424 | 0.552 | 0.415 | 0.49 | 0.769 | 0.597 | 0.386 | 0.406 | 0.477 | 0.349 | 0.908 | 0.931 | 0.439
8 | NVSILYTASQA [CTNNA1_Y222_P219S] | 0.921 | 0.499 | 0.685 | 0.447 | 0.787 | 0.629 | 0.548 | 0.892 | 0.725 | 0.531 | 0.547 | 0.51 | 0.505 | 0.95 | 1.02 | 0.434
9 | RKPDIYERLAS [MCM4_Y459] | 0.734 | 0.643 | 0.71 | 0.99 | 0.901 | 0.943 | 0.927 | 0.846 | 0.798 | 2.04 | 4.52 | 0.903 | 1.65 | 0.702 | 1.2 | 0.671
10 | GRLFAYPDTHC [CAT_Y358_R363C] | 0.835 | 0.531 | 0.846 | 0.466 | 0.75 | 0.479 | 0.556 | 0.784 | 0.687 | 0.403 | 0.481 | 0.512 | 0.432 | 0.785 | 1.05 | 0.466
11 | LSSEMCVKSYT [F5_Y2149_Y2149C] | 0.665 | 0.451 | 0.452 | 1.2 | 1.59 | 1.46 | 1.54 | 1.55 | 1.04 | 1.16 | 0.877 | 0.888 | 1.1 | 2.4 | 1.76 | 1.23
12 | SRIWVYNHYRW [BRCA2_Y2621] | 1.14 | 1.17 | 1.1 | 0.469 | 0.783 | 0.396 | 0.671 | 1.05 | 0.845 | 0.402 | 0.442 | 0.466 | 0.466 | 0.95 | 1.59 | 0.574
13 | VHNLNYFKKTT [FGFR3_Y647_D646N_YF] | 0.987 | 0.377 | 0.678 | 0.302 | 0.442 | 0.346 | 0.36 | 0.402 | 0.369 | 0.425 | 0.347 | 0.314 | 0.311 | 0.467 | 0.607 | 0.355
14 | FMCKVYSDPQP [FGFR1_Y280] | 0.733 | 0.439 | 0.511 | 0.516 | 0.99 | 0.591 | 0.752 | 1.41 | 0.863 | 0.664 | 0.578 | 0.701 | 0.425 | 1.3 | 1.64 | 0.543
15 | MQMEEYRGWVE [BTNL2_Y91] | 0.946 | 0.391 | 0.392 | 0.409 | 0.545 | 0.449 | 0.503 | 1.22 | 0.599 | 0.553 | 0.464 | 0.711 | 0.423 | 1.25 | 1.07 | 0.488

Continued, in another order:

Row | SH2 binding enrichment (Grb2 SH2) | SH2 binding enrichment (c-Src SH2) | SH2 binding enrichment (SHP2-C SH2) | Sequence | phosphorylation enrichment (Fyn) | phosphorylation enrichment (c-Abl (mouse)) | phosphorylation enrichment (Fer (mouse)) | phosphorylation enrichment (EPHB1) | phosphorylation enrichment (AncSZ) | phosphorylation enrichment (FGFR3) | phosphorylation enrichment (c-Src) | phosphorylation enrichment (Hck) | phosphorylation enrichment (EPHB2) | phosphorylation enrichment (MERTK) | phosphorylation enrichment (Jak2) | phosphorylation enrichment (Fes) | phosphorylation enrichment (FGFR1)
16 | 0.894 | 0.387 | 0.526 | RLSVDYSKKSK [TUBA3E_Y161] | 0.247 | 0.433 | 0.35 | 1.09 | 0.515 | 0.34 | 0.36 | 0.442 | 0.389 | 0.461 | 0.408 | 0.553 | 0.373
17 | 1.44 | 0.764 | 0.832 | KLVDVYVNDAF [PGK1_Y161_G158V] | 0.574 | 0.387 | 0.496 | 0.575 | 0.895 | 0.626 | 0.435 | 0.554 | 0.5 | 0.425 | 0.661 | 0.81 | 0.635
18 | 0.951 | 0.662 | 0.677 | QRRLVYYERGA [RYR1_Y245_G248R] | 0.533 | 0.368 | 0.226 | 0.448 | 0.427 | 0.48 | 0.426 | 0.53 | 0.345 | 0.319 | 0.391 | 0.537 | 0.499
19 | 0.762 | 0.542 | 0.526 | IRRQGYSHRIL [MYO3B_Y993] | 0.465 | 0.469 | 0.43 | 0.4 | 0.733 | 0.469 | 0.42 | 0.419 | 0.568 | 0.464 | 0.475 | 0.656 | 0.374
20 | 0.775 | 0.415 | 0.651 | TVQVAYFTVMM [SPATA17_Y83_M86V_YF] | 0.595 | 0.921 | 0.842 | 0.838 | 1.44 | 1.09 | 0.666 | 0.61 | 0.758 | 0.486 | 1.3 | 1.55 | 0.729
21 | 0.967 | 0.548 | 0.635 | AERKLYSGAQT [ZAP70_Y178] | 0.375 | 0.545 | 0.358 | 0.436 | 0.504 | 0.457 | 0.383 | 0.395 | 0.295 | 0.414 | 0.412 | 0.536 | 0.36
22 | 0.713 | 0.408 | 0.444 | RLEGVYGNNID [PTEN_Y46_R47G] | 1.57 | 0.384 | 0.621 | 0.452 | 0.404 | 0.381 | 1.26 | 0.94 | 0.311 | 0.657 | 0.557 | 0.603 | 0.485
23 | 1.07 | 0.705 | 0.784 | MCITRYERESQ [PRNP_Y218_Q217R] | 0.404 | 0.466 | 0.488 | 0.429 | 1.03 | 0.541 | 0.404 | 0.469 | 0.528 | 0.457 | 0.769 | 0.813 | 0.433
24 | 0.783 | 0.533 | 0.654 | NPQKSCFIRLY [WAS_Y83_Y83C] | 0.504 | 0.783 | 0.481 | 0.597 | 1.02 | 0.769 | 0.403 | 0.494 | 0.503 | 0.396 | 1.07 | 1.14 | 0.441
25 | 0.941 | 0.433 | 0.962 | TVHPGYGFLSE [PCCA_Y143_A138T] | 0.384 | 0.529 | 0.425 | 0.455 | 0.717 | 0.478 | 0.566 | 0.488 | 0.467 | 0.396 | 0.676 | 0.747 | 0.393
26 | 0.923 | 0.72 | 0.654 | EQSNPYMVLDI [ROCK2_Y1197] | 2.5 | 0.737 | 3.79 | 0.577 | 1.19 | 1.1 | 3.73 | 1.38 | 0.616 | 2.28 | 1.24 | 1.09 | 1.11
27 | 0.9 | 0.497 | 0.686 | NFRPGYNNFFN [USH2A_Y467_YF] | 0.522 | 0.574 | 0.389 | 0.354 | 0.773 | 0.549 | 0.64 | 0.466 | 0.483 | 0.433 | 0.712 | 0.772 | 0.519
28 | 1.06 | 0.482 | 0.54 | VSSPKYGGDDE [TMCC2_Y473_S475G] | 0.535 | 0.517 | 0.451 | 0.437 | 0.96 | 0.573 | 0.424 | 0.429 | 0.379 | 0.416 | 0.631 | 0.903 | 0.477
29 | 0.828 | 0.484 | 0.817 | PLGVLYKVKVY [PTS_Y128_V124L] | 0.339 | 0.876 | 0.511 | 0.674 | 1.61 | 0.82 | 0.36 | 0.465 | 0.626 | 0.318 | 1.19 | 1.4 | 0.415
